Here are results for one molecule from PMC5147500 (2016).

For the assay, the target named is retromer (Homo sapiens, UniProt O75436). The assay can be described thus: ITC. Background: In ITC the heat of successive injections is recorded.

B1: DMT1-II recycling signal (peptide)
chain: AQPELYLLNTMDADSLVSR
modifications: in presence of SNX3
Turning to B1, the dissociation constant Kd is about 127 µM.

One may read the Kd as the free concentration of one partner at which half of the binding sites on the other are occupied at equilibrium, for simple one-to-one binding. Higher therefore signals weaker binding.
